Test results from paper PMC9352680, “A comprehensive thermodynamic model for RNA binding by the Saccharomyces cerevisiae Pumilio protein PUF4”.

T1: PUF4 RNA-binding domain (Saccharomyces cerevisiae, UniProt P25339 537-888)
T1 sequence: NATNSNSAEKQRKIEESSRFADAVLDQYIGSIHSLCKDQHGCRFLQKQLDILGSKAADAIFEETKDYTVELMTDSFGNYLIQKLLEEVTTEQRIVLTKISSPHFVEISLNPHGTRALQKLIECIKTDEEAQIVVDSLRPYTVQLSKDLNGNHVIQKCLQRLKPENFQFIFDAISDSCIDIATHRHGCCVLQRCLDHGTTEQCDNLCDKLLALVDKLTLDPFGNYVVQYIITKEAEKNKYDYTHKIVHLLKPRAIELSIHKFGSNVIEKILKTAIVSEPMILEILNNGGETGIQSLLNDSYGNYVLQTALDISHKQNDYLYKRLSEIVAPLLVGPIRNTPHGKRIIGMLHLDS


Biological target: T1, PUF4 RNA-binding domain
Test: Mg; RNA-MaP; 20 mM Na-HEPES pH 7.4, 30 mM KOAc, 0.75 mM MgCl2, 0.1% Tween-20, 5% glycerol, 0.1 mg/mL BSA, 2 mM DTT; 25 C; 0.0125-409.6 nM protein
Conditions: tags: N-His6-TEV cleaved; C-SNAP kept, Cy3B-labelled; label: tethered on chip by stalled RNA polymerase

Binder	Kd [nM]
UCUCUUUGUAAGCUCCUCUCUU (ssRNA) [Ic_S1_P5E.1_K5.1_C5.1_H5.1_A5.1_[T5A]_[T6G]_[A7C]_F5.1_[T9C]_[A10C]_T5.1]	1500
UCUCUUUGUACUACCCUCUCUU (ssRNA) [Ic_S1_P5E.1_K5.1_C5.1_H5.1_A5.1_[T5C]_F5.1_[T8C]_[T9C]_[A10C]_T5.1]	656
UCUCUUUGUACCACCCUCUCUU (ssRNA) [Ic_S1_P5E.1_K5.1_C5.1_H5.1_A5.1_[T5C]_[T6C]_F5.1_[T8C]_[T9C]_[A10C]_T5.1]	523
UCUCUUUGUACGAAUUUCUCUU (ssRNA) [Ic_S1_P5E.1_K5.1_C5.1_H5.1_A5.1_[T5C]_[T6G]_F5.1_[T8A]_[A10T]_T5.1]	693
UCUCUUUGUAUACUAGUCUCUU (ssRNA) [Ic_S1_P5E.1_K5.1_C5.1_H5.1_A5.1_[T6A]_[A7C]_F5.1_[T9A]_[A10G]_T5.1]	0.331
UCUCUUUGUACCAUCCUCUCUU (ssRNA) [Ic_S1_P5E.1_K5.1_C5.1_H5.1_A5.1_[T5C]_[T6C]_F5.1_[T9C]_[A10C]_T5.1]	12.5
UCUCUUUGUAUGUGCCUCUCUU (ssRNA) [Ic_S1_P5E.1_K5.1_C5.1_H5.1_A5.1_[T6G]_[A7T]_F5.1_[T8G]_[T9C]_[A10C]_T5.1]	838
UCUCUUUGUAAGCACUUCUCUU (ssRNA) [Ic_S1_P5E.1_K5.1_C5.1_H5.1_A5.1_[T5A]_[T6G]_[A7C]_F5.1_[T8A]_[T9C]_[A10T]_T5.1]	> 2300
UCUCUUUGUACUCUGUUCUCUU (ssRNA) [Ic_S1_P5E.1_K5.1_C5.1_H5.1_A5.1_[T5C]_[A7C]_F5.1_[T9G]_[A10T]_T5.1]	21.5
UCUCUUUGUACCCAUCUCUCUU (ssRNA) [Ic_S1_P5E.1_K5.1_C5.1_H5.1_A5.1_[T5C]_[T6C]_[A7C]_F5.1_[T8A]_[A10C]_T5.1]	603
UCUCUUUGUAUAACAUUCUCUU (ssRNA) [Ic_S1_P5E.1_K5.1_C5.1_H5.1_A5.1_[T6A]_F5.1_[T8C]_[T9A]_[A10T]_T5.1]	12.6
UCUCUUUGUAUACACUUCUCUU (ssRNA) [Ic_S1_P5E.1_K5.1_C5.1_H5.1_A5.1_[T6A]_[A7C]_F5.1_[T8A]_[T9C]_[A10T]_T5.1]	69.2
UCUCUUUGUACACGCCUCUCUU (ssRNA) [Ic_S1_P5E.1_K5.1_C5.1_H5.1_A5.1_[T5C]_[T6A]_[A7C]_F5.1_[T8G]_[T9C]_[A10C]_T5.1]	394
UCUCUUUGUAUAAAAAUCUCUU (ssRNA) [Ic_S1_P5E.1_K5.1_C5.1_H5.1_A5.1_[T6A]_F5.1_[T8A]_[T9A]_T5.1]	42
UCUCUUUGUACCCCAAUCUCUU (ssRNA) [Ic_S1_P5E.1_K5.1_C5.1_H5.1_A5.1_[T5C]_[T6C]_[A7C]_F5.1_[T8C]_[T9A]_T5.1]	1350
UCUCUUUUCAUAUAUCUCUU (ssRNA) [Ib_S1_P3E.1_K3.1_C3.1_H3.1_[G2T]_[T3C]_A3.1_F3.1_T3.1]	> 2300

Binder	Kd [nM]
UCUCUUUGUAGUUCCCUCUCUU (ssRNA) [Ic_S1_P5E.1_K5.1_C5.1_H5.1_A5.1_[T5G]_[A7T]_F5.1_[T8C]_[T9C]_[A10C]_T5.1]	1650
UCUCUUUGUAUACGACUCUCUU (ssRNA) [Ic_S1_P5E.1_K5.1_C5.1_H5.1_A5.1_[T6A]_[A7C]_F5.1_[T8G]_[T9A]_[A10C]_T5.1]	49
UCUCUUUGUACAAACUUCUCUU (ssRNA) [Ic_S1_P5E.1_K5.1_C5.1_H5.1_A5.1_[T5C]_[T6A]_F5.1_[T8A]_[T9C]_[A10T]_T5.1]	93.1
UCUCUUUGUACUUCCAUCUCUU (ssRNA) [Ic_S1_P5E.1_K5.1_C5.1_H5.1_A5.1_[T5C]_[A7T]_F5.1_[T8C]_[T9C]_T5.1]	666
UCUCUUUGUAAAGCCAUCUCUU (ssRNA) [Ic_S1_P5E.1_K5.1_C5.1_H5.1_A5.1_[T5A]_[T6A]_[A7G]_F5.1_[T8C]_[T9C]_T5.1]	1060
UCUCUUUGUAAUUACGUCUCUU (ssRNA) [Ic_S1_P5E.1_K5.1_C5.1_H5.1_A5.1_[T5A]_[A7T]_F5.1_[T8A]_[T9C]_[A10G]_T5.1]	613
UCUCUUUGUACGGCUGUCUCUU (ssRNA) [Ic_S1_P5E.1_K5.1_C5.1_H5.1_A5.1_[T5C]_[T6G]_[A7G]_F5.1_[T8C]_[A10G]_T5.1]	2200
UCUCUUUGUAUAGCUCUCUCUU (ssRNA) [Ic_S1_P5E.1_K5.1_C5.1_H5.1_A5.1_[T6A]_[A7G]_F5.1_[T8C]_[A10C]_T5.1]	111
UCUCUUUGUACAUACGUCUCUU (ssRNA) [Ic_S1_P5E.1_K5.1_C5.1_H5.1_A5.1_[T5C]_[T6A]_[A7T]_F5.1_[T8A]_[T9C]_[A10G]_T5.1]	11
UCUCUUUGUAUAAUGGUCUCUU (ssRNA) [Ic_S1_P5E.1_K5.1_C5.1_H5.1_A5.1_[T6A]_F5.1_[T9G]_[A10G]_T5.1]	8.53
UCUCUUUGUACAAAAUUCUCUU (ssRNA) [Ic_S1_P5E.1_K5.1_C5.1_H5.1_A5.1_[T5C]_[T6A]_F5.1_[T8A]_[T9A]_[A10T]_T5.1]	30.9
UCUCUUUGUAGCAUCAUCUCUU (ssRNA) [Ic_S1_P5E.1_K5.1_C5.1_H5.1_A5.1_[T5G]_[T6C]_F5.1_[T9C]_T5.1]	287
UCUCUUUGUACCAGUCUCUCUU (ssRNA) [Ic_S1_P5E.1_K5.1_C5.1_H5.1_A5.1_[T5C]_[T6C]_F5.1_[T8G]_[A10C]_T5.1]	363
UCUCUUUGUAUCUCUGUCUCUU (ssRNA) [Ic_S1_P5E.1_K5.1_C5.1_H5.1_A5.1_[T6C]_[A7T]_F5.1_[T8C]_[A10G]_T5.1]	58.6
UCUCUUUGUAAUGCUUUCUCUU (ssRNA) [Ic_S1_P5E.1_K5.1_C5.1_H5.1_A5.1_[T5A]_[A7G]_F5.1_[T8C]_[A10T]_T5.1]	181
UCUCUUUGUAAGUUAAUCUCUU (ssRNA) [Ic_S1_P5E.1_K5.1_C5.1_H5.1_A5.1_[T5A]_[T6G]_[A7T]_F5.1_[T9A]_T5.1]	66.4
